According to doi:10.1101/2022.12.05.519077:

Molecular target: Kcnj13 (Kir7.1) from D. rerio fused to mCherry, with N-terminal His-tags (D. rerio)
Assay: mass photometry

stoichiometry N: 4
Substance: Kcnj13 (Kir7.1) from D. rerio fused to mCherry, with N-terminal His-tags (natural protein)
